This experiment has as its target human LTβR on A375 cells (human) (UniProt P36941). As to the kind of experiment: cell-based or functional assay.

Sequence of human LTβR on A375 cells (human) (P36941 31-435): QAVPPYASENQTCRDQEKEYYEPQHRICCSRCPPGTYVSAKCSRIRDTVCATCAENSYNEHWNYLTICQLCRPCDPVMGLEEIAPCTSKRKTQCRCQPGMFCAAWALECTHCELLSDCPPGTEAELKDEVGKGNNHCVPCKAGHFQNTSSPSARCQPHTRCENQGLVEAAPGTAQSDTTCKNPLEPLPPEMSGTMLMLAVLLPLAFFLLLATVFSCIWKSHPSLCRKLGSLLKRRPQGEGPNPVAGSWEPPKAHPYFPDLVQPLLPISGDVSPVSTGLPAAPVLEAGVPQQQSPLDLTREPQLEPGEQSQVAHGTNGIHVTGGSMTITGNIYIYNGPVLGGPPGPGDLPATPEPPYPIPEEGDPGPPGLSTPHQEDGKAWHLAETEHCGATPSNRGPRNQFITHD

“recombinant human LIGHT (R&D systems) (from UniProt O43557 74-240) (ligand)” yielded an IL-8 secretion of A375 cells, EC50 (FIG. 15a) of 226 pM and an IL-8 secretion of A375 cells, EC50 (FIG. 15b) of 190 pM.

(Values after patent US20250368754A1.)
